Blank lines part the entries; values can stand above or below the binder they belong to.
Target: T1, human CD19 protein with a biotinylated AviTag (Acrobiosystems) (human, UniProt P15391 20-291, biotinylated AviTag)
T1 construct: Captured on streptavidin-coated microplate wells; also called biotinylated-AviTag-CD19; hCD19; not shown: AviTag
T1 sequence (looked up): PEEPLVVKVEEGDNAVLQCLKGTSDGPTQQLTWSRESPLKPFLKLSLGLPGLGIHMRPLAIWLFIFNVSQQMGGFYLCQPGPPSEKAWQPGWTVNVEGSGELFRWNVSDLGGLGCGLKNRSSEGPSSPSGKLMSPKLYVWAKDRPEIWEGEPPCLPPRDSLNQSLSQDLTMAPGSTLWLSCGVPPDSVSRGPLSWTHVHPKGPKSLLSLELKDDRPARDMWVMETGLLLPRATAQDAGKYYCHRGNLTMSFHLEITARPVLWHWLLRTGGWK
Test: phage ELISA, biotinylated AviTag CD19 on streptavidin wells; signal ratio to FMC63 standard
Text: To identify unique human CD19-binding monoclonal scFv from the panned libraries, individual phage antibody clones were expanded, assessed for binding to CD19 by ELISA, and subjected to nucleotide sequencing to identify those clones that were unique. A total of 84 scFvs were randomly selected from the panned libraries (70 from P3 and 14 from P4).

ELISA hCD19 (ratio FMC63): 0.27 ratio to FMC63
B1: scFv 18 (scFv)
scFv: QSALTQTASVSGSLGQKVTISCTGSRSNIGANYVGWYQQVPGIGPRTVIFGYNYRPSGVPDRFSSSKSGNSATLTISGLQAEDEAEYYCSTWDSSLNAYVFGSGTQLTVLGGGSSRSSSSGGGGSGGGGEVPLVESGGDLVKPGGSLRLSCVASGFTLSNYGMSWVRQSPGKGLQWVAAIRSGGNTYYADAVKGRFTISRDNAKNTLYLQMNSLRAEDTAVYYCASQWGDWGHFEYWGQGTLVTVSSASTTAPSVTSGQAGQHHHHHHGAYPYDVPDYAS
notes: Canine scFv (VL-linker-VH); also called P4-12

ELISA hCD19 (ratio FMC63): 0.77 ratio to FMC63
B2: scFv 10 (scFv)
scFv: QAVLNQPASVSGALGQTVTISCSGSHTNIGSGFDVQWYQQLPGKSPQTIIYANINRPSGVPARFSGSKSGSTATLTITGVQAEDEADYHCQSFDDDLDGPVFGGGTHLTVLGGGSSRSSSSGGGGSGGGGEVQLVQSGGDLVKPGGSLKISCVASGLTFNRNYMTWIRQAPGKGLQWVSEINPDGSTTSYTDAVRGRFTISRDNAKNTLYLQMNSMRDEDTAVYYCARSSWGSFDYWGQGTLVTVSSASTTAPSVTSGQAGQHHHHHHGAYPYDVPDYAS
notes: Canine scFv (VL-linker-VH); also called P3-01

ELISA hCD19 (ratio FMC63): 0.71 ratio to FMC63
B3: scFv 21 (scFv)
scFv: QPVLTQPPSVSVSLGQTATISCSGESLSKYYAQWFQQKAGQAPVLVIYKDTERPSGIPDRFSGSSSGNTHTLTISGARAEDEADYYCESAVSSDTAVFGSGTQLTVLGGGSSRSSSSGGGGSGGGGEVQLVESGGDMVKPGGSLRLSCVASGFTFSSFWMYWVRQAPGKGLQWVGGINSGGSITSYADAVKGRFTISRDNARNTLYLQMDSLRDEDTAVYYCAKPDIYGSFDHWGQGTLVTVSSESPSPPNLTSGQAGQHHHHHHGAYPYDVPDYAS
notes: Canine scFv (VL-linker-VH); also called P3-04; P3-34

ELISA hCD19 (ratio FMC63): 0.66 ratio to FMC63
B4: scFv 17 (scFv)
scFv: QPVLTQPPSVSAALGQRVTISCTGSKTNIGSGYDVQWYQQLPGKSPKTIIYGNSNRPSGVPARFSGSKSGSIATLTITGIQAEDEADYYCQSFDDNVDGYVFGSGTQLTILGGGSSRSSSSGGGGSGGGGEVPLVESGGDLVKPGGSLRLSCVASGFTFSSYGMSWVRQAPGKGLQWVAYINGGGSSTSYADAVRGRFTISRDNAENTLYLQMNSLRADDTAVYYCSNYYGIYWDSDYWGQGTLVTVSSESPSPPNLTSGQAGQHHHHHHGAYPYDVPDYAS
notes: Canine scFv (VL-linker-VH); also called P4-05A; P4-05B

ELISA hCD19 (ratio FMC63): 0.21 ratio to FMC63
B5: scFv 22 (scFv)
scFv: QPVLTQPPSVSGSLGQRVTISCTGSSSNVGYGDYVGWYQQLPGTSPRTLIYSSSSRPSGVPDRFSGSRSGSTATLTISGLQAEDEADYHCSSYDTSLNGFVFGSGTQLTILGGGSSRSSSSGGGGSGGGGELTLQESGPGLVKPAQTLSLTCTVSGDSVTSSHFWHWIRQRPGRGLEWMGYWSDITIYSPTFQGRISITVDTARNQFSLHLNSVTTEDSAVYFCARYNGYVDYLDVWGQGTLITVSSASTTAPSVTSGQAGQHHHHHHGAYPYDVPDYAS
notes: Canine scFv (VL-linker-VH); also called P3-09; P3-11

ELISA hCD19 (ratio FMC63): 0.26 ratio to FMC63
B6: scFv 19 (scFv)
scFv: QAVLTQPASVSGPLGQRVTISCSGSTNNIGIVGAAWYQQFPGKAPKLLVYSDGSRPSGVPDRFSGSNSGNSATLTISGLQAEDEADYYCQSVDATHGTILFGGGTQLTVLGGGSSRSSSSGGGGSGGGGEVQLVETGGDLVKPAGSLRLSCAASGFPFSGYSMTWVRQAPEKGLQLVAGINSDGSHTYYTDDVKGRFTVSRDNTKYILYLQMNSLRVEDTAIYYCGSHSWGNFHYWGQGTLVTVSSESPSPPNLTSGQAGQHHHHHHGAYPYDVPDYAS
notes: Canine scFv (VL-linker-VH); also called P3-35

ELISA hCD19 (ratio FMC63): 0.15 ratio to FMC63
B7: scFv 25 (scFv)
scFv: DIVMTQTPLSLSVSPGETASISCKASQSLLHSNGNTYLNWFRQKPGQSPQVLIYQVSNRDTGVPDRFSGSGSGTDFTLRISRVEADDAGVYYCGQGIQYPPTFGAGTKVELKGGSSRSSSSGGGGSGGGGEEQLVEFGGDLVKPGGSLRLSCVASGFTFSSLSMNWIRQAPGKGLQWVSQISPDGTITGYTDAVKGRFTISRDNAKNTLYLQMNSLRDEDTAIYYCAKSRYTDTYPFDYWGPGTLVTVSSESPSPPNLTSGQAGQHHHHHHGAYPYDVPDYAS
notes: Canine scFv (VL-linker-VH); also called P3-40

ELISA hCD19 (ratio FMC63): 0.28 ratio to FMC63
B8: scFv 13 (scFv)
scFv: QPVLTQPPSVSGALGQTVTISCSGSHTNIGSGFDVQWYQQLPGKSPQTLVYANINRPSGVPARFSGSKSGSTATLTITGVQAEDEADYYCQSYDDNFDYVFGSGTQLTVLGGGSSRSSSSGDGGSGGGGEVQLVESGGGLMKPGGSLKLSCLASGFTFSRYYMYWVRQAPGKGLQWVAQISSDGRRTYYADAVQGRFTISRDNVKNTVYLQMNSLSDEDTAVYYCVREDYFDFDYWGQGTLVTVSSASTTAPSVTSGQAGQHHHHHHGAYPYDVPDYAS
notes: Canine scFv (VL-linker-VH); also called P3-36; P3-38

ELISA hCD19 (ratio FMC63): 0.47 ratio to FMC63
B9: scFv 20 (scFv)
scFv: QSVLNQPPSVSVSLGQTATISCSGESLSKYYAQWFQQKAGQVPVLVIYKDTERPSGIPDRFSGSSSGNTHTLTISGARAEDEADYYCESEVSPDTIVFGGGTHLTVLGGGSSRSSSSGGGGSGGGGEVQLVESGGDLVKPGGSLRLSCVASGFTFSSYAMSWVRQAPGEGLQWVAYINSAGSTTYYADAVKGRFTISRDNARNTVYLQMNSLRAEDTAVYYCGRYYYGLDYWGPGTSVFVSSESPSPPNLTSGQAGQHHHHHHGAYPYDVPDYAS
notes: Canine scFv (VL-linker-VH); also called P3-12

ELISA hCD19 (ratio FMC63): 0.16 ratio to FMC63
B10: scFv 12 (scFv)
scFv: SYELTQPPSATVTLRQTARLTCGGENIGRKSVQWYQQKPGQSPLLIIYADSSRPSGIPERFSGANSGNTASLTISGALAEDEADYYCQIWDRNINVFGSGTQLTVLGGGSSRSSSSGGGGSGGGGEEQLVEFGGDLVKPAGSLRLSCVASGFTFSSYDMSWVRQAPGKGLQWVATISYDGSSTYYTDAVKGRFTVSRDNAKNTLYLQMNSLRAEDTALYYCAKDSGSWSHFYGLDTWGHGTSVFVSSASTTAPSVTSGQAGQHHHHHHGAYPYDVPDYAS
notes: Canine scFv (VL-linker-VH); also called P3-48

ELISA hCD19 (ratio FMC63): 0.41 ratio to FMC63
B11: scFv 16 (scFv)
scFv: QSVLTQPTSVSGSLGQRVTISCTGSSSNVGYGNYVGWYQQLPGTGPRTLIYGSHYRPSGVPDRFSGSSSGSSATLTISGLQAEDEADYYCSSYDSTLSGYVFGSGTQLTILGGGSSRSSSSGGGGSGGGGEVQLVESGGDLVKPGGSLRLSCVGSGFTLSSYWMSWVRQAPGKGLQWIAEISGSGNTIYYGDAVKGRFTISRDNAKNTLYLQMNSLRDEDTAVYYCATEYYWNIDNWGQGTLVTVSSESPFPPNLTSGQAGQHHHHHHGAYPYDVPDYAS
notes: Canine scFv (VL-linker-VH); also called P3-33; P4-01

ELISA hCD19 (ratio FMC63): 0.59 ratio to FMC63
B12: scFv 14 (scFv)
scFv: QSVLNQPPSVSAALGQRITISCTGSHTNIGSGYDVQWYQQLPGKSPRTIIYGNSDRPSGVPVRFSGSKSGNTATLTITGIQAEDEADYYCQSYDDNLNDPYVFGSGTQLTVLGGGSSRSSSSGGGGSGGGGEVQLVQSGGDLVKPGGSLRLSCVASGFAFSGKTMQWVRQAPGKGLQWVAYIQHDGSRTSYADAVKGRFTISRDNAKNTLYLQMDSLRAEDTAVYYCADHPWYGPEYWGQGTPVTVSSESPSPPNLTSGQAGQHHHHHHGAYPYDVPDYAS
notes: Canine scFv (VL-linker-VH); also called P3-58

ELISA hCD19 (ratio FMC63): 0.49 ratio to FMC63
B13: scFv 2 (scFv)
scFv: SYVLTQSPSLSGSLGQKVTISCTGSRSNLGGNYVGWYQQVPGMAPRNVIYANDFRPSRIPARFSASKSGTSATLTISGLQAEDEADYFCSSWDDDLGSHVFGSGTQLTILGGGSSRSSSSGGGGSGGGGEEQLVEFGGDLVKPGGSLRLSCVASGFSFSSYDMSWVRQAPGKGLQWVASTNFDGSRTYYTDAVEGRFTISRDNARNTVYLQMNSLRAEDTAVYYCARGMGSWGASTFGYWGQGTLVTVSSASTTAPSVTSGQAGQHHHHHHGAYPYDVPDYAS
notes: Canine scFv (VL-linker-VH); also called scFv_02; P3-21

ELISA hCD19 (ratio FMC63): 0.36 ratio to FMC63
B14: scFv 23 (scFv)
scFv: DIVMTQTPLSLSVSPGEPASISCKASQSLLHSNGNTYLYWFRQKPGQSPQRLIYLVSNRDAGVPDRFSGSGSGTDFTLRISRVEADDSGIYYCGQGKQDPITFGEGTHLEIKGGSSRSSSSGGGGSGGGGELTLQESGPGLVKPSQTLSLTCVVSGGSVTTSDYWNWLRQRPGRGLEYMGYWKGRTEYNPAFQGRISITADTAKNQFSLQLNSVTADDTAIYYCAHWGSGNLDYWGPGTLVTVSSESPSPPNLTSGQAGQHHHHHHGAYPYDVPDYAS
notes: Canine scFv (VL-linker-VH); also called P3-37

ELISA hCD19 (ratio FMC63): 0.84 ratio to FMC63
B15: scFv 1 (scFv)
scFv: QAVLNQPASVSAALGQRVTISCNTNIGSPYDVQWYQQLPGKSPKTIIYGNSNRPSGVPVRFSGSKSGSTATLTIAGIQAEDEADYYCQSYDDSLDGRVVFGGGTQLTVLGGGSSRSSSSGGGGSGGGGEVQLVESGGDLVKPGGSLRLSCVASGFTFSNHEMYWVRQAPGKGLEWVARIYDSGSRTRYADAVKGRFTISRDNAKNTLYLQMNSLTAEDTAVYFCAGGNSRGWTEFGMDYWGPGTLVTVSSASTTAPSVTSGQAGQHHHHHHGAYPYDVPDYAS
notes: Canine scFv (VL-linker-VH); also called scFv_01; P3-15

ELISA hCD19 (ratio FMC63): 0.31 ratio to FMC63
B16: scFv 11 (scFv)
scFv: QPVLTQPPSVSGALGQTVTISCSGSHTNIGSGFDVQWYQQLPGKSPQTLVYANINRPSGVPARFSGSKSGSTATLTITGVQAEDEADYYCQSYDDNFDYVFGSGTQLTVLGGGSSRSSSSGGGGSGGGGEVQLVESGGDLVKPGGSLRLSCVASGFTFSDYSMSWVRQSPGKGLQWVAAIMTSGSTYYADAVKGRFTISRDNAKNTLYLQMDSLRAEDTAVYYCAHDYWFDFWGQGTLVTVSSASTTAPSVTSGQAGQHHHHHHGAYPYDVPDYAS
notes: Canine scFv (VL-linker-VH); also called P3-57

ELISA hCD19 (ratio FMC63): 0.99 ratio to FMC63
B17: scFv 15 (scFv)
scFv: SYELTQPPSVSAALGQGVTISCIGSDTNIGNHYDVQWYQQLPGKSPRTIIYGNSDRPSGVPGRFSGSKSGNTATLTITGIQAEDEADYHCQSYDDDLDGHIVFGGGTHLTVLGGGSSRSSSSGGGGSGGGGEVQLVQSGGDLVKPGGSLRLSCVASGFTFNKYHMSWVRQAPGKGLQWVGKITSDGSATGYADAVKGRFTISRDNAKNTFYLQMDSLRAEDTAMYYCARDQSSWGTGNFDYWGQGTLVTVSSASTTAPSVTSGQAGQHHHHHHGAYPYDVPDYAS
notes: Canine scFv (VL-linker-VH); also called P3-59A
